The experiment concerns the target T1, huCdc7 fused to DNA-binding domain of Gal4 (human, UniProt P04386 1-147; O00311 1-574, limits assumed).
T1 construct: Yeast two-hybrid bait in strain CG1945; also called huCdc7 (two-hybrid bait)
The experiment is described as follows: yeast two-hybrid assay, lacZ activity. As to the method: In order to determine the region on H37 protein essential for binding with huCdc7, a series of deletion derivatives of H37 at N- and C-terminals as shown in FIG. 7 was prepared, each of them was expressed in yeast as a fusion protein with Gal4 activated domain and an interaction of each deletion derivative with huCdc7 was investigated by means of a two-hybrid assay. […] However, when 50 amino acids at N-terminal were further deleted whereupon the H37 motif C was deleted, an interaction with huCdc7 was completely lost (ΔN3).

B1: H37 deletion derivative ΔN3 fused to Gal4 activation domain (other, not shown: small tags and cut ends)
chain: LETHLLSEQHRNFAQSNQYQVVDDIVSKLVFDFVEYEKDTPKKKRIKYSVGSLSPVSASVLKKTEQKEKVELQHISQKDCQEDDTTVKEQNFLYKETQETEKKLLFISEPIPHPSNELRGLNEKMSNKCSMLSTAEDDIRQNFTQLPLHKNKQECILDISEHTLSENDLEELRVDHYKCNIQASVHVSDFSTDNSGSQPKQKSDTVLFPAKDLKEKDLHSIFTHDSGLITINSSQEHLTVQAKAPFHTPPEEPNECDFKNMDSLPSGKIHRKVKIILGRNRKENLEPNAEFDKRTEFITQEENRICSSPVQSLLDLFQTSEEKSEFLGFTSYTEKSGICNVLDIWEEENSDNLLTAFFSSPSTSTFTGF
notes: The range is worked out from the printed counts of deleted residues and a length of 674
Consider B1, for which the binding result is listed as “no binding”.

B2: H37 deletion derivative ΔP1 fused to Gal4 activation domain (other, not shown: small tags and cut ends)
chain: MNSGAMRIHSKGHFQGGIQVKNEKNRPSLKSLKTDNRPEKSKCKPLWGKVFYLDLPSVTISEKLQKDIKDLGGRVEEFLSKDISYLISNKKEAKFAQTLGRISPVPSPESAYTAETTSPHPSHDGSSFKSPDTVCLSRGKLLVEKAIKDHDFIPSNSILSNALSWGVKILHIDDIRYYIEQKKKELYLLKKSSTSVRDGGKRVGSGAQKTRTGRLKKPFVKVEDMSQLYRPFYLQ
Regarding B2, the binding result is “no binding”.

B3: H37 deletion derivative ΔB fused to Gal4 activation domain (other, not shown: small tags and cut ends)
chain: MNSGAMRIHSKGHFQGGIQVKNEKNRPSLKSLKTDNRPEKSKCKPLWGKVFYLDLPSVTISEKLQKDIKDLGGRVEEFLSKDISYLISNKKEAKFAQTLGRISPVPSPESAYTAETTSPHPSHDGSSFKSPDTVCLSRGKLLVEKAIKDHDFIPSNSILSNALSWGVKILHIDDIRYYIEQKKKELYLLKKSSTSVRDGGKRVGSGAQKTRTGRLKKPFVKVEDMSQLYRPFYLQLTNMPFINYSIQKPCSPFDVDKPSSMQKQTQVKLRIQTDGDKYGGTSIQLQLKEKKKKGYCECCLQKYED
notes: The range is worked out from the printed count of deleted residues and a length of 674; also called deltaB
Take B3: the “interaction relative to the full-length clone” value is roughly 10%.

The values are drawn from US6897054 (JAPAN SCIENCE AND TECHNOLOGY AGENCY, dated 2005).
